Molecular target: the molecule itself
Experiment: SEC

B1: R.Eco29kI restriction endonuclease, E142Q (enzyme, E. coli strain 29K (plasmid pECO29), UniProt Q46944 1-214, looked up)
chain: MHNKKFDRSEHVYRNDSFLELIKDAVRFFSGTPVHSLPPPERFQGAGVYALYYTGHYSLYDEYSRINRLAYNLPIYVGKAVPAGWRQSRISDHETRAGSELSNRIREHGRNIAKTSNLDLCDFSCRFVIFEATGSDMISTVQAALIKIYKPLWNTVVDGFGNHTPGAGRFAQAKSDWDVIHPGREWAEKCTGVHSEPYFIEERIKQYFSKSNFT
Q: How did the “stoichiometry N” value turn out when B1 was run?
A: 2
